Results from patent US20160244802A1 (UNIVERSITY OF NORTH CAROLINA AT CHAPEL HILL, published 2016).

Target: the molecule itself
Experiment: gel filtration (Sephacryl S300) native size against about 150 kDa on SDS-PAGE; inference
Description: The bound proteins were eluted with a 12-cv linear gradient from BD50 to BD450. The flow-through containing the HDM activity was adjusted to 700 mM ammonium sulfate before it was loaded onto a 22 mL Phenyl Sepharose® column (Pharmacia). The bound proteins were eluted with a cv linear gradient from BD700 to BD0. The active fractions, which eluted from 10-BD150-BD50, were combined and concentrated to 5 mL before they were loaded onto a 120 mL Sephacyl® S300 gel filtration column (Pharmacia). The active fractions, which eluted around 300 kDa, were pooled and loaded onto a 1 mL MonoS® column (Pharmacia) equilibrated with BC50. Bound proteins were eluted with a 20-cv linear gradient from BC50 to BC400. The active fractions eluted from BC100 to BC150. […]
To identify the protein(s) responsible for this demethylase activity, we monitored the enzymatic activity through five chromatography columns (Scheme 5). After purification of the 0.3 M P11 fraction through DEAE5PW and Phenyl Sepharose® columns, we determined that the native mass of the enzymatic activity was about 300 kDa as assessed by a Sephacyl® S300 column (FIG. 9A). […] To verify that JMJD1A was responsible for the detected demethylase activity, an antibody against this protein was generated and used to immunoprecipitate JMJD1A from the MonoS® column fractions 21-29. […]

B1: native JHDM2A (JMJD1A) purified from HeLa cells (enzyme)
chain: MVLTLGESWPVLVGRRFLSLSAADGSDGSHDSWDVERVAEWPWLSGTIRAVSHTDVTKKDLKVCVEFDGESWRKRRWIEVYSLLRRAFLVEHNLVLAERKSPEISERIVQWPAITYKPLLDKAGLGSITSVRFLGDQQRVFLSKDLLKPIQDVNSLRLSLTDNQIVSKEFQALIVKHLDESHLLKGDKNLVGSEVKIYSLDPSTQWFSATVINGNPASKTLQVNCEEIPALKIVDPSLIHVEVVHDNLVTCGNSARIGAVKRKSSENNGTLVSKQAKSCSEASPSMCPVQSVPTTVFKEILLGCTAATPPSKDPRQQSTPQAANSPPNLGAKIPQGCHKQSLPEEISSCLNTKSEALRTKPDVCKAGLLSKSSQIGTGDLKILTEPKGSCTQPKTNTDQENRLESVPQALTGLPKECLPTKASSKAELEIANPPELQKHLEHAPSPSDVSNAPEVKAGVNSDSPNNCSGKKVEPSALACRSQNLKESSVKVDNESCCSRSNNKIQNAPSRKSVLTDPAKLKKLQQSGEAFVQDDSCVNIVAQLPKCRECRLDSLRKDKEQQKDSPVFCRFFHFRRLQFNKHGVLRVEGFLTPNKYDNEAIGLWLPLTKNVVGIDLDTAKYILANIGDHFCQMVISEKEAMSTIEPHRQVAWKRAVKGVREMCDVCDTTIFNLHWVCPRCGFGVCVDCYRMKRKNCQQGAAYKTFSWLKCVKSQIHEPENLMPTQIIPGKALYDVGDIVHSVRAKWGIKANCPCSNRQFKLFSKPASKEDLKQTSLAGEKPTLGAVLQQNPSVLEPAAVGGEAASKPAGSMKPACPASTSPLNWLADLTSGNVNKENKEKQPTMPILKNEIKCLPPLPPLSKSSTVLHTFNSTILTPVSNNNSGFLRNLLNSSTGKTENGLKNTPKILDDIFASLVQNKTTSDLSKRPQGLTIKPSILGFDTPHYWLCDNRLLCLQDPNNKSNWNVFRECWKQGQPVMVSGVHHKLNSELWKPESFRKEFGEQEVDLVNCRTNEIITGATVGDFWDGFEDVPNRLKNEKEPMVLKLKDWPPGEDFRDMMPSRFDDLMANIPLPEYTRRDGKLNLASRLPNYFVRPDLGPKMYNAYGLITPEDRKYGTTNLHLDVSDAANVMVYVGIPKGQCEQEEEVLKTIQDGDSDELTIKRFIEGKEKPGALWHIYAAKDTEKIREFLKKVSEEQGQENPADHDPIHDQSWYLDRSLRKRLHQEYGVQGWAIVQFLGDVVFIPAGAPHQVHNLYSCIKVAEDFVSPEHVKHCFWLTQEFRYLSQTHTNHEDKLQVKNVIYHAVKDAVAMLKASESSFGKP
notes: Endogenous protein in MonoS column fractions from HeLa nuclear extract; also called TSGA
B1: binds.
